In patent publication US20220267469A1 (LIPUM, published 2022):
Substitutions are numbered along the chain they refer to.

T1: Biotinylated human BSSL (human, UniProt P19835 21-753, Biotinylated on glycosacarides, 30-40 biotin/BSSL)
T1 construct: hBSSL biotinylated in house; also called b-hBSSL; human BSSL-biotin
T1 sequence: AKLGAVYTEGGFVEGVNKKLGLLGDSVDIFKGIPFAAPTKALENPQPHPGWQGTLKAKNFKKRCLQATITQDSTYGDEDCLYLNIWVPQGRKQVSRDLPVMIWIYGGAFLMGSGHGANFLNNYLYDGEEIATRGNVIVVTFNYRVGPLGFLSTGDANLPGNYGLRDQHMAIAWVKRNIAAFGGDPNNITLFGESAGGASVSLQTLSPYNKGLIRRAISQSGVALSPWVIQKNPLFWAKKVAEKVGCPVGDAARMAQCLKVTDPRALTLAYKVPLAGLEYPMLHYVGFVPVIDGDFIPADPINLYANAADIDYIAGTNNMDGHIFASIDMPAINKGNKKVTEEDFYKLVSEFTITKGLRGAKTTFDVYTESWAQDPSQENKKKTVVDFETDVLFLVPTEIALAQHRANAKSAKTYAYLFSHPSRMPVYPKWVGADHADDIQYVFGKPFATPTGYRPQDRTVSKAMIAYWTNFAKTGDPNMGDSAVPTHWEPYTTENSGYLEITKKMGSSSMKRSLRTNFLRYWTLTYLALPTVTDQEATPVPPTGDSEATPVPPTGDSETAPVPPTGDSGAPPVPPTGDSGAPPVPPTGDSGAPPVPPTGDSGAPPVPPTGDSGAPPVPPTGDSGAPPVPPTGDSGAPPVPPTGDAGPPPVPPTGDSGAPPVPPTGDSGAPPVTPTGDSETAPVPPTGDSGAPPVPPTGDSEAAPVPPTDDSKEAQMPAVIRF

T2: Human BSSL (bile salt-stimulated lipase), native (human, UniProt P19835 21-753)
T2 sequence: T1 sequence

T3: Mouse BSSL, recombinant (mouse, UniProt Q64285 21-599)
T3 construct: Bought (R&D Systems, Cat. no 5658-CE); also called mBSSL; murine BSSL
T3 sequence: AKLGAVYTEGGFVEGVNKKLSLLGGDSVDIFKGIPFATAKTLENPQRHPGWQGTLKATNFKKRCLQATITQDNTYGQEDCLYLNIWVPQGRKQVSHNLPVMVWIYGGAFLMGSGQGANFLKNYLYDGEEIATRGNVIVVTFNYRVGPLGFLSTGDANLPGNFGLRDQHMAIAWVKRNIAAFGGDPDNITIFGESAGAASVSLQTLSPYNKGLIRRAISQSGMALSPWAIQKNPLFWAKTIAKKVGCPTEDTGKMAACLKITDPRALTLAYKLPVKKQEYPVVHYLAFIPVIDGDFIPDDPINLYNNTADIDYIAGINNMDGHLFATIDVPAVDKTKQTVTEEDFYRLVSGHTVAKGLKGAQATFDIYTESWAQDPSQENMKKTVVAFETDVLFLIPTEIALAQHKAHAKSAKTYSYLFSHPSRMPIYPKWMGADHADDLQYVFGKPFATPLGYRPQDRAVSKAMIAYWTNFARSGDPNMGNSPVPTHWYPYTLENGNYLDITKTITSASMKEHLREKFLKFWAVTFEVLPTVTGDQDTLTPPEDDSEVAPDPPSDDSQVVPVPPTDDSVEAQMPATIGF

B1: AS20 hIgG4 S228P (antibody)
heavy: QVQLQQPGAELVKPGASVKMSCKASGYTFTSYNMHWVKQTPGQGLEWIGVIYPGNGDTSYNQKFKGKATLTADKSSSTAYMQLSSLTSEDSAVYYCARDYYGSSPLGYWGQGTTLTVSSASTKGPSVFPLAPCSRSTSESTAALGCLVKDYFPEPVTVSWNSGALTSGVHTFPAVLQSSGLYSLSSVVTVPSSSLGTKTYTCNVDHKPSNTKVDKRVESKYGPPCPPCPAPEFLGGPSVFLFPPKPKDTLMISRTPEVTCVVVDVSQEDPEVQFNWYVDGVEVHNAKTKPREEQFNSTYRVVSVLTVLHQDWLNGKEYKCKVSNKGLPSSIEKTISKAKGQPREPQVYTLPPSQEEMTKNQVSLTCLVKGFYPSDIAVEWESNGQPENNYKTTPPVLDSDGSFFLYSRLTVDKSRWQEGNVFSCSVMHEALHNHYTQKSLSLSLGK
light: QIVLTQSPAVMSASPGEKVTMTCSASSSISYMHWYQQKPGTSPKRWIYDTSKLASGVPARFSGSGSGTSYSLTISSMEAEDAATYYCHQRSSYPTFGGGTKLEIKRTVAAPSVFIFPPSDEQLKSGTASVVCLLNNFYPREAKVQWKVDNALQSGNSQESVTEQDSKDSTYSLSSTLTLSKADYEKHKVYACEVTHQGLSSPVTKSFNRGEC
notes: also called AS20 IgG4; AS20 (parental clone)
B2: S-SL048-11 hIgG4 S228P (antibody, V domains shown)
VH: QVQLVQSGAEVKKPGASVKVSCKASGYTFTSYNMHWVRQAPGQGLEWMGVIYPGDGATSYAQKFKGRVTMTRDTSTSTVYMELSSLRSEDTAVYYCARDYYGSSPLGYWGQGTLVTVSS
VL: DIQMTQSPSSLSASVGDRVTITCSASPSISYMNWYQQKPGKAPKLLIYATSSLASGVPSRFSGSGSGTDFTLTISSLQPEDFATYYCHQRSSYPTFGQGTKLEIKR
notes: also called clone 11; mAb11
B3: S-SL048-116 hIgG4 S228P (antibody, V domains shown)
VH: B2 VH with Y52N
VL: B2 VL with S24R, Y93S
notes: also called mAb116
B4: S-SL048-118 hIgG4 S228P (antibody, V domains shown)
VH: B2 VH with Y52N
VL: B2 VL with A54P, Y93S
notes: also called clone 118; mAb118

Molecular target: T1, Biotinylated human BSSL
Assay: flow cytometry displacement assay; 0.5 ug antibody, 1 ug b-hBSSL
Procedure: (§1) The 28 BSSL-specific hIgG4 antibodies and the five reference antibodies at different concentrations (ranging from 0.5 μg to 3.0 μg per reaction; see Table 10) were added to b-hBSSL (1 μg per reaction, see Table 2) in round-bottom polystyrene tubes, lx PBS (pH 7.4) was added to a final volume of 20 μl and the antibody/b-hBSSL mixtures were incubated for 30 min. at +4° C. to facilitate binding of antibodies to BSSL. Buffy coat (50 μl) was then added to each antibody/b-hBSSL mixture and incubation continued for another 30 min at +4° C. Thereafter, 2 ml of FACS lysing solution (BD Biosciences) was added and the cells were incubated for 10 min at room temperature in order to lyse erythrocytes and fix the white blood cells. The cells were then centrifuged for 5 min. at 200×g, the resulting pellets were washed by adding 2 ml of FACS buffer (1×PBS supplemented with 1% FCS and 0.1% NaN3) and centrifuged again. Finally, the supernatants were discarded and the cells were resuspended in the last drop of liquid, approximately 50 μl.
(§2) 5 μl of BV421-labelled anti-human CD14 (BD Biosciences) and 5 μl of BB515-labelled streptavidin (BD Biosciences) was added to each tube and incubated for 30 min, at +4° C., protected from light. Thereafter, cells were washed twice with FACS buffer, resuspended in 500 μl FACS buffer, and run on BD LSRII flow cytometer (BD Biosciences). Finally, data were analyzed using FlowJo software (BD Biosciences).

percentage reduction of b-hBSSL binding to CD14+ monocytes	Binder
19%	B1
1%	B2

Molecular target: T2, Human BSSL (bile salt-stimulated …)
Assay: cell-based or functional assay

BSSL hydrolysis of triglycerides, relative value (no antibody = 100%); 0.19 ug antibody	BSSL hydrolysis of triglycerides, relative value (no antibody = 100%); 0.38 ug antibody	BSSL hydrolysis of triglycerides, relative value (no antibody = 100%); 0.75 ug antibody	BSSL hydrolysis of triglycerides, relative value (no antibody = 100%); 1.5 ug antibody	BSSL hydrolysis of triglycerides, relative value (no antibody = 100%); 3.0 ug antibody	BSSL hydrolysis of triglycerides, relative value (no antibody = 100%); 6.0 ug antibody	Binder
109%	114%	125%	112%	120%	113%	B2
105%	112%	100%	96.2%	106%	108%	B3
107%	106%	102%	88%	93.9%	119%	B4

Molecular target: T2, Human BSSL (bile salt-stimulated …)
Assay: SPR single cycle kinetics, hIgG4 S228P captured by anti-Fab
Summary of the method: (§3)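 hIgG4 S228P captured on an immobilized anti-Fab surface; five BSSL concentrations injected, 1:5 dilutions from 50 nM (human) or from 500 nM (mouse). Human BSSL: single-cycle kinetics, 1:1 fit. Mouse BSSL: KD from steady-state equilibrium response versus concentration. Regeneration with 10 mM glycine-HCl pH 2.1.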

Kd	Binder
0.6 nM	B1
0.7 nM	B2
0.6 nM	B3
0.9 nM	B4

Molecular target: T3, Mouse BSSL, recombinant
Assay: SPR steady state, captured by anti-Fab, Absolute Antibody batch
Procedure: (§4) Kinetic parameters of the hIgG4 S228P clones were determined by SPR using BIACORE® T200 (GE Healthcare). An anti-Fab antibody (GE #28958325) was immobilized on a CM5 S sensor chip by primary amine coupling using NHS-EDC chemistry. The hIgG4 antibodies were captured by the anti-Fab antibody, and subsequently, five different concentrations of hBSSL (1:5 dilutions, 0.08-50 nM) or mBSSL (1:2 dilutions, 50-800 nM) were injected over the surface. The sensor chip surface was regenerated with 10 mM glycine-HCl pH 2.1. For binding to human BSSL, single cycle kinetic data was fitted to a 1:1 binding model and kinetic parameters were retrieved using software BlAevaluation. For mouse BSSL, a steady state analysis was performed by plotting the response level at equilibrium against each concentration, and KD values were retrieved by the BlAevalution software.

Kd	Binder
223 nM	B1
65 nM	B2
40 nM	B3
70 nM	B4

Molecular target: T1, Biotinylated human BSSL
Assay: flow cytometry displacement assay; 1.0 ug antibody, 1 ug b-hBSSL
Procedure: as §1, §2

percentage reduction of b-hBSSL binding to CD14+ monocytes	Binder
21%	B1
9%	B2

Molecular target: T2, Human BSSL (bile salt-stimulated …)
Assay: SPR single cycle kinetics, captured by anti-Fab, Absolute Antibody batch
Procedure: as §4

Kd	Binder
0.6 nM	B1
0.6 nM	B2
0.5 nM	B3
0.5 nM	B4

Molecular target: T1, Biotinylated human BSSL
Assay: flow cytometry displacement assay; 3.0 ug antibody, 1 ug b-hBSSL
Summary of the method: (§5)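 Antibody (0.5–3.0 μg per reaction) preincubated with 1 μg biotinylated human BSSL in PBS pH 7.4, 30 min at 4 °C, then with human buffy coat 30 min at 4 °C. After erythrocyte lysis/fixation, bound BSSL on CD14+ monocytes detected by labelled streptavidin via flow cytometry.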

percentage reduction of b-hBSSL binding to CD14+ monocytes	Binder
68%	B2
64%	B3
58%	B4

Molecular target: T1, Biotinylated human BSSL
Assay: flow cytometry displacement assay; 1.5 ug antibody, 1 ug b-hBSSL
Summary of the method: as §5

percentage reduction of b-hBSSL binding to CD14+ monocytes	Binder
60%	B2
58%	B3
23%	B4

Molecular target: T1, Biotinylated human BSSL
Assay: flow cytometry displacement assay; 2.0 ug antibody, 1 ug b-hBSSL
Procedure: as §1, §2

percentage reduction of b-hBSSL binding to CD14+ monocytes	Binder
58%	B1

Molecular target: T3, Mouse BSSL, recombinant
Assay: SPR steady state, hIgG4 S228P captured by anti-Fab
Summary of the method: as §3

Kd	Binder
161 nM	B1
24 nM	B2
52 nM	B3
95 nM	B4

Molecular target: T2, Human BSSL (bile salt-stimulated …)
Assay: cell-based or functional assay
Remark: another data set of the same source

BSSL hydrolysis of cholesterol esters, relative value (no antibody = 100%); 0.19 ug antibody	BSSL hydrolysis of cholesterol esters, relative value (no antibody = 100%); 0.38 ug antibody	BSSL hydrolysis of cholesterol esters, relative value (no antibody = 100%); 0.75 ug antibody	BSSL hydrolysis of cholesterol esters, relative value (no antibody = 100%); 1.5 ug antibody	BSSL hydrolysis of cholesterol esters, relative value (no antibody = 100%); 3.0 ug antibody	BSSL hydrolysis of cholesterol esters, relative value (no antibody = 100%); 6.0 ug antibody	Binder
96.2%	98.2%	92.2%	95.2%	93.7%	90.2%	B2
104%	107%	102%	103%	107%	107%	B3
105%	103%	110%	105%	106%	102%	B4
